Data taken from the RNAGym collection of RNA variant scans (doi:10.7554/elife.80360).

B1: Twister Ribozyme (parent)
chain: AACACUGCCAAUGCCGGUCCCAAGCCCGGAUAAAAGUGGAGGGGGCGG

Variants of: B1
Assay: self-cleavage, relative activity (ratio to wild type); higher = more cleavage; co-transcriptional

In order of falling self-cleavage:
1. GACACUGCCAAUGCCCGUCCCAAGCCCGGAUAAAAGUGGAGGGGGCGG [A1G G16C]  0.561
2. GACACUGCCAAUGCCGGUCCCAAGCCCGGAUACAAGUGGAGGGGGCGG [A1G A33C]  0.462
3. GACACUGCCAAUGCCGGUCCCAAGCCCGGAUAAAAGUGGAGGGGGCGG [A1G]  0.461
4. GACACUGCCAAUGCCGGUCCCAAGCCCGGUUAAAAGUGGAGGGGGCGG [A1G A30U]  0.436
5. GACACUGCCAAUGCCGGUCCCAAGCCCGGAUAAAAGUGGAGGGGGGGG [A1G C46G]  0.428
6. GACACUGCCAGUGCCGGUCCCAAGCCCGGAUAAAAGUGGAGGGGGCGG [A1G A11G]  0.414
7. GACACUGCCAAUGCCGGUCCCAAGCCCGGAUAAAAGUGGAGGGGGAGG [A1G C46A]  0.412
8. GACACUGCCACUGCCGGUCCCAAGCCCGGAUAAAAGUGGAGGGGGCGG [A1G A11C]  0.349
9. GACACUGCCAAUGCCGGUCCCAAGCCCGGAUAAAAGUGGAGGGAGCGG [A1G G44A]  0.309
10. GACACUGCCAAUGCCGGUCCCAAGCCCGGAUAAAAGUCGAGGGGGCGG [A1G G38C]  0.304
11. GACACUGCCAAUGCCGGUCCCAAGCCCGGAUAAAAGUGGAGGGGUCGG [A1G G45U]  0.274
12. CACACUGCCAAUGCCGGUCCCAAGCCCGGAUAAAAGGGGAGGGGGCGG [A1C U37G]  0.262
13. GACACUGCCAAUGCCGGUCCCUAGCCCGGAUAAAAGUGGAGGGGGCGG [A1G A22U]  0.255
14. GACACUGCCAAUGCCGGUCCCAAGCCCGGAUAAAAGUGGAGGCGGCGG [A1G G43C]  0.255
15. GACACUGCCAAUGCCGGUCCCAAGCCCGGAUAAAAAUGGAGGGGGCGG [A1G G36A]  0.252
16. GACACUGCCAAUGCCGGUACCAAGCCCGGAUAAAAGUGGAGGGGGCGG [A1G C19A]  0.247
17. GACGCUGCCAAUGCCGGUCCCAAGCCCGGAUAAAAGUGGAGGGGGCGG [A1G A4G]  0.237
18. CACACUGCCAAUGCCGGUCCCAAGCCCGGAUAAAAGUGGAGGGGGCUG [A1C G47U]  0.228
19. GACACUGCAAAUGCCGGUCCCAAGCCCGGAUAAAAGUGGAGGGGGCGG [A1G C9A]  0.226
20. CACACUGCCAAAGCCGGUCCCAAGCCCGGAUAAAAGUGGAGGGGGCGG [A1C U12A]  0.223
21. GACACUGCCAAUGCCGGUCCCAAGUCCGGAUAAAAGUGGAGGGGGCGG [A1G C25U]  0.222
22. GACACUGCCAAUGCCGGUCCCAAGCCCGGAUAAAAGUGGCGGGGGCGG [A1G A40C]  0.218
23. GACACUACCAAUGCCGGUCCCAAGCCCGGAUAAAAGUGGAGGGGGCGG [A1G G7A]  0.216
24. GACACUGCCAAUGCCGGUCCCAAGCCCGGAUAAAAGUUGAGGGGGCGG [A1G G38U]  0.211
25. GACACUGCCAAUGCCGGUCCCAAGCCCGGAUAAAAUUGGAGGGGGCGG [A1G G36U]  0.204
26. GACACUGCCAAUGCCGGUCCCAAGCCCGGAUAAAAGUGGUGGGGGCGG [A1G A40U]  0.204
27. GACACUGCCAAUGCCGGUCCCAAGCCCGGCUAAAAGUGGAGGGGGCGG [A1G A30C]  0.198
28. GACACUGCCAAUGCCGGUCCCAAGCCCGGAUAACAGUGGAGGGGGCGG [A1G A34C]  0.186
29. CACACUGCCAAUGCCGGUCCCAAGCCCGGAUAAAAGCGGAGGGGGCGG [A1C U37C]  0.174
30. CACACUGCCAAUGCCGGUCCCAAGCCCGGAUAAAAGUGGAGGGGGCAG [A1C G47A]  0.168
31. CACACUGCCAAUGCCGGUCCCAAGCCCGGAUAAAAGUGGAGGGGGCGC [A1C G48C]  0.168
32. GACACUGCCAAUGCCGGUCCCGAGCCCGGAUAAAAGUGGAGGGGGCGG [A1G A22G]  0.165
33. CACACUGCCAAUGCCGGUCCCAAGCCCGGAUAAAAGUGGAGGGGGCGA [A1C G48A]  0.164
34. GACACUGCCAAUGCCGGUCCCAAUCCCGGAUAAAAGUGGAGGGGGCGG [A1G G24U]  0.163
35. GACACUGCCAAUGCCGGUCCAAAGCCCGGAUAAAAGUGGAGGGGGCGG [A1G C21A]  0.157
36. CACACUGCCAAGGCCGGUCCCAAGCCCGGAUAAAAGUGGAGGGGGCGG [A1C U12G]  0.143
37. GACACUUCCAAUGCCGGUCCCAAGCCCGGAUAAAAGUGGAGGGGGCGG [A1G G7U]  0.137
38. UAGACUGCCAAUGCCGGUCCCAAGCCCGGAUAAAAGUGGAGGGGGCGG [A1U C3G]  0.0927
39. UACACUGCCAAUGCCGGUCCCACGCCCGGAUAAAAGUGGAGGGGGCGG [A1U A23C]  0.09
40. UAUACUGCCAAUGCCGGUCCCAAGCCCGGAUAAAAGUGGAGGGGGCGG [A1U C3U]  0.0886
41. UACACUGUCAAUGCCGGUCCCAAGCCCGGAUAAAAGUGGAGGGGGCGG [A1U C8U]  0.087
42. UUCACUGCCAAUGCCGGUCCCAAGCCCGGAUAAAAGUGGAGGGGGCGG [A1U A2U]  0.0794
43. UACAUUGCCAAUGCCGGUCCCAAGCCCGGAUAAAAGUGGAGGGGGCGG [A1U C5U]  0.076
44. UACACUGCCAAUGCCGGUCCCAGGCCCGGAUAAAAGUGGAGGGGGCGG [A1U A23G]  0.0754
45. UACACUGCCAAUGCCGGUCCCAAGCCCGGAUAAUAGUGGAGGGGGCGG [A1U A34U]  0.0731
46. UACCCUGCCAAUGCCGGUCCCAAGCCCGGAUAAAAGUGGAGGGGGCGG [A1U A4C]  0.0725
47. UACACUGCCAAUGCCGGUCCCAAGCCCGGAUAAGAGUGGAGGGGGCGG [A1U A34G]  0.0704
48. UACACUGACAAUGCCGGUCCCAAGCCCGGAUAAAAGUGGAGGGGGCGG [A1U C8A]  0.0697
49. UACACUGCCAUUGCCGGUCCCAAGCCCGGAUAAAAGUGGAGGGGGCGG [A1U A11U]  0.0684
50. UACACUGCCAAUGCCGGUCCCAAGCCCGGAUAAAUGUGGAGGGGGCGG [A1U A35U]  0.0666
51. UACACUGCCGAUGCCGGUCCCAAGCCCGGAUAAAAGUGGAGGGGGCGG [A1U A10G]  0.0651
52. UACACUGCCAAUGCCGGUCCCAAGCCCGGAUAAAAGUGGAGGGGGCGG [A1U]  0.0597
53. UACAAUGCCAAUGCCGGUCCCAAGCCCGGAUAAAAGUGGAGGGGGCGG [A1U C5A]  0.0587
54. UACACUGGCAAUGCCGGUCCCAAGCCCGGAUAAAAGUGGAGGGGGCGG [A1U C8G]  0.0353
